Assay [1] has as its target ACTR-Avi (Avi-tagged, biotinylated, Cy3B-labelled ACTR) (human). The assay can be described thus: FRET or BRET.
Assay [2] concerns the target T1, NCBD2 NCBD (Mus musculus, UniProt P45481).
T1 chain: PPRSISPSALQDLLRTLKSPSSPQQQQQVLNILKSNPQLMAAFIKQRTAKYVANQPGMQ

Assay [3] addresses T2, NCBD1 NCBD (Mus musculus, UniProt P45481).
T2 chain: T1 chain

One may read the kon as the second-order rate constant of association. Higher therefore signals fast association. One may read the Kd as the equilibrium constant for the complex coming apart. High values mean a looser complex, low ones a tighter complex.

Turning to “NCBD wt (single-cysteine variant labelled with CF680R) (domain or fragment)”, the kon in assay [1] was 2.9e+08 M⁻¹ s⁻¹.

B1: ACTR ACTR (protein)
chain: GTQNRPLLRNSLDDLVGPPSNLEGQSDERALLDQLHTLLSNTDATGLEEIDRALGIPELVNQGQALEPKQD
With B1, the Kd in assay [2] turned out to be 650 nM; in assay [3], 78 nM.
